This note sets out measurements from the supplement of paper PMC7877785.

The nature of the data set: self-splicing fitness, log relative to wild type (ln ratio); higher = more splicing; Tetrahymena group I intron in knt gene, E. coli kanamycin selection, DiMSum; sequences stand for … in CUCUCU…GGAGGGAAAAGUUAUCAGGCAUGCACCUGGUAGCUAGUCUUUAAACCAAUAGAUUGCAUCGGUUUAAAAGGCAAGACCGUCAAAUUGCGGGAAAGGGGUCAACAGCCGUUCAGUACCAAGUCUCAGGGGAAACUUUGAGAUGGCCUUGCAAAGGGUAUGGUAAUAAGCUGACGGACAUGGUCCUAACCACGCAGCCAAGUCCUAAGUCAACAGAUCUUCUGUUGAUAUGGAUGCAGUUCACAGACUAAAUGUCGGUCGGGGAAGAUGUAUUCUUCUCAUAAGAUAUAGUCGGACCUCUCCUUAAUGGGAGCUAGCGGAUGAAGUGAUGCAACACUGGAGCCGCUGGGAACUAAUUUGUAUGCGAAAGUAUAUUGAUUAGUUUUGGAGUACUCGUGGUCG
In a few lines:
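Library with all eight P1ex-region intron nucleotides randomised, intron inside the knt kanamycin-resistance gene on pET-22b(+), in E. coli BL21(DE3). Cells grew overnight at 37°C or 30°C on LB agar with or without 25 μg/mL kanamycin (plus 100 μg/mL carbenicillin, 50 μM IPTG, 0.2% rhamnose), in six replicate transformations. Pooled colonies were amplicon-sequenced on Illumina HiSeq 2500. DiMSum fitness is the error-weighted combination of wild-type-normalised replicate fold changes, kanamycin versus none.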

± gives the uncertainty stated by the source.

For the sequence GUCGAGCAAUAUUACGCUAG, the “self-splicing fitness (ln)” value was -3.53 ± 0.21 (30 °C) and -1.93 ± 0.15 (37 °C). The corresponding values for UGGUAGCAAUAUUACGAAUG are -1.95 ± 0.12 and -1.02 ± 0.12.

With AAGCAGCAAUAUUACGAAUC, the “self-splicing fitness (ln)” value runs as follows: (30 °C) -2.44 ± 0.16; (37 °C) -2.12 ± 0.2.

In the case of UCUAAGCAAUAUUACGUUAC, the “self-splicing fitness (ln)” value is, setting by setting: (30 °C) -2.8 ± 0.18; (37 °C) -2.09 ± 0.26. In the case of CGCCAGCAAUAUUACGGCAG, the “self-splicing fitness (ln)” value runs as follows: (30 °C) -2.3 ± 0.11; (37 °C) -1.02 ± 0.12. The corresponding values for AAACAGCAAUAUUACGACCA are -0.58 ± 0.061 and -0.0342 ± 0.082.

For AACCAGCAAUAUUACGUGGA, the “self-splicing fitness (ln)” value is -2.33 ± 0.093 (30 °C) and -1.13 ± 0.08 (37 °C). On to ACUAAGCAAUAUUACGGCCG, for which the “self-splicing fitness (ln)” value is, setting by setting: (30 °C) -0.147 ± 0.087; (37 °C) -0.306 ± 0.12. As to AGUGAGCAAUAUUACGCAUG, the “self-splicing fitness (ln)” value runs as follows: (30 °C) -3.22 ± 0.29; (37 °C) -3.25 ± 0.43.

AAAUAGCAAUAUUACGCUUG: the “self-splicing fitness (ln)” value runs as follows: (30 °C) -1.77 ± 0.087; (37 °C) -0.8 ± 0.12. In the case of AUUAAGCAAUAUUACGACUG, the “self-splicing fitness (ln)” value (30 °C) was -2.34 ± 0.2 and the “self-splicing fitness (ln)” value (37 °C) was -1.64 ± 0.24.

With GCUGAGCAAUAUUACGCGCU, the “self-splicing fitness (ln)” value was -3.05 ± 0.31 (30 °C) and -1.53 ± 0.36 (37 °C). Regarding AUCCAGCAAUAUUACGCUAG, the “self-splicing fitness (ln)” value reads like this: (30 °C) -2.76 ± 0.11; (37 °C) -1.11 ± 0.12. The corresponding values for CCUUAGCAAUAUUACGUGAG are -1.35 ± 0.068 and 0.0439 ± 0.088. Take CUCAAGCAAUAUUACGUACA: the “self-splicing fitness (ln)” value is -3.5 ± 0.23 (30 °C) and -1.83 ± 0.18 (37 °C). Turning to GAUCAGCAAUAUUACGGCAC, the “self-splicing fitness (ln)” value is -0.826 ± 0.099 (30 °C) and 0.413 ± 0.17 (37 °C). The corresponding values for CCGCAGCAAUAUUACGUCUG are -3.34 ± 0.17 and -3.13 ± 0.18. With UGGAAGCAAUAUUACGGCCU, the “self-splicing fitness (ln)” value reads like this: (30 °C) -0.816 ± 0.11; (37 °C) -0.639 ± 0.13. With UGAUAGCAAUAUUACGCACC, the “self-splicing fitness (ln)” value by setting is: (30 °C) -1.02 ± 0.15; (37 °C) -0.277 ± 0.22. On to UCAAAGCAAUAUUACGCGCC, for which the “self-splicing fitness (ln)” value was -2.36 ± 0.24 (30 °C) and -1.24 ± 0.28 (37 °C). As to AUGGAGCAAUAUUACGUCAC, the “self-splicing fitness (ln)” value (30 °C) is -3.23 ± 0.37.

CGCAAGCAAUAUUACGCCCC: the “self-splicing fitness (ln)” value runs as follows: (30 °C) -1.49 ± 0.36; (37 °C) -0.475 ± 0.38.

Turning to GUCCAGCAAUAUUACGACGA, the “self-splicing fitness (ln)” value runs as follows: (30 °C) -2.69 ± 0.12; (37 °C) -0.712 ± 0.091.

With CCACAGCAAUAUUACGAUAC, the “self-splicing fitness (ln)” value runs as follows: (30 °C) -3.48 ± 0.24; (37 °C) -2.16 ± 0.22. For AGUGAGCAAUAUUACGAUUG, in that order: -3.59 ± 0.42 and -2.77 ± 0.38.

Regarding CGCCAGCAAUAUUACGCUCA, the “self-splicing fitness (ln)” value (30 °C) is -0.656 ± 0.073 and the “self-splicing fitness (ln)” value (37 °C) came to 0.163 ± 0.083. The corresponding values for GACCAGCAAUAUUACGUCAC are -4.24 ± 0.27 and -2.54 ± 0.2. For UUCUAGCAAUAUUACGGAUG, in that order: -1.05 ± 0.098 and -0.888 ± 0.13. For the sequence GCACAGCAAUAUUACGUGCC, under “30 °C”, the “self-splicing fitness (ln)” value was -5.1 ± 0.29. As to UUCUAGCAAUAUUACGGGUG, the “self-splicing fitness (ln)” value is, setting by setting: (30 °C) -0.114 ± 0.078; (37 °C) 0.281 ± 0.11. Consider GCAGAGCAAUAUUACGCAUA, for which the “self-splicing fitness (ln)” value was -3.11 ± 0.22 (30 °C) and -2.89 ± 0.24 (37 °C).

On to GCGGAGCAAUAUUACGCCUA, for which the “self-splicing fitness (ln)” value (30 °C) is -2.53 ± 0.46. With AGGCAGCAAUAUUACGGCGG, the “self-splicing fitness (ln)” value (30 °C) was -1.62 ± 0.094 and the “self-splicing fitness (ln)” value (37 °C) is -1.11 ± 0.13. With CUUAAGCAAUAUUACGACAG, the “self-splicing fitness (ln)” value (30 °C) stood at 0.325 ± 0.096 and the “self-splicing fitness (ln)” value (37 °C) was -0.266 ± 0.12. As to AACGAGCAAUAUUACGUAAC, the “self-splicing fitness (ln)” value is -2.83 ± 0.2 (30 °C) and -1.83 ± 0.44 (37 °C). Consider GUGCAGCAAUAUUACGAAGC, for which the “self-splicing fitness (ln)” value runs as follows: (30 °C) -1.05 ± 0.14; (37 °C) -1.36 ± 0.19. As to GAGAAGCAAUAUUACGAGUC, the “self-splicing fitness (ln)” value (30 °C) is -2.11 ± 0.11 and the “self-splicing fitness (ln)” value (37 °C) was -1.78 ± 0.2. For GUAAAGCAAUAUUACGUGCA, in that order: 0.139 ± 0.058 and 0.551 ± 0.093.

With UGCCAGCAAUAUUACGUGCG, the “self-splicing fitness (ln)” value by setting is: (30 °C) -1.34 ± 0.077; (37 °C) -1.13 ± 0.091. The corresponding values for ACGUAGCAAUAUUACGCGCU are -1.89 ± 0.11 and -0.586 ± 0.16. In the case of AGGUAGCAAUAUUACGUGCA, the “self-splicing fitness (ln)” value runs as follows: (30 °C) -0.829 ± 0.014; (37 °C) -0.279 ± 0.033. The corresponding values for UUGUAGCAAUAUUACGACCU are -1.39 ± 0.15 and -0.134 ± 0.16. The corresponding values for CUGAAGCAAUAUUACGAGGC are -3.15 ± 0.17 and -1.69 ± 0.16. In the case of CGACAGCAAUAUUACGGUCA, the “self-splicing fitness (ln)” value (30 °C) was -0.168 ± 0.083 and the “self-splicing fitness (ln)” value (37 °C) was determined as 0.276 ± 0.1. For AUACAGCAAUAUUACGUAAC, the “self-splicing fitness (ln)” value is -3.13 ± 0.11 (30 °C) and -1.25 ± 0.077 (37 °C).

Turning to AUGAAGCAAUAUUACGAACG, the “self-splicing fitness (ln)” value by setting is: (30 °C) -0.583 ± 0.094; (37 °C) 0.0323 ± 0.12.

For the sequence CUCCAGCAAUAUUACGGGGU, the “self-splicing fitness (ln)” value reads like this: (30 °C) -3.58 ± 0.17; (37 °C) -2.61 ± 0.19. For UCGUAGCAAUAUUACGAAAA, in that order: -2.3 ± 0.36 and -1.77 ± 0.46.

As for UCUAAGCAAUAUUACGUGGU, the “self-splicing fitness (ln)” value runs as follows: (30 °C) -2.45 ± 0.12; (37 °C) -2 ± 0.14. The corresponding values for GGCCAGCAAUAUUACGAUAG are -3.68 ± 0.46 and -2.95 ± 0.23. Regarding ACCUAGCAAUAUUACGUUAA, the “self-splicing fitness (ln)” value reads like this: (30 °C) -2.38 ± 0.14; (37 °C) -1.9 ± 0.17. With UUCGAGCAAUAUUACGUGAC, the “self-splicing fitness (ln)” value is -3.65 ± 0.24 (30 °C) and -3.28 ± 0.27 (37 °C).

With CCGUAGCAAUAUUACGAGGU, the “self-splicing fitness (ln)” value is, setting by setting: (30 °C) -3.33 ± 0.19; (37 °C) -2.46 ± 0.22. Take UGCAAGCAAUAUUACGUUAC: the “self-splicing fitness (ln)” value runs as follows: (30 °C) -2.91 ± 0.27; (37 °C) -2.41 ± 0.24. Turning to CUAAAGCAAUAUUACGAAUC, the “self-splicing fitness (ln)” value is -4.03 ± 0.14 (30 °C) and -2.46 ± 0.16 (37 °C). Take UACAAGCAAUAUUACGCCAC: under “30 °C”, the “self-splicing fitness (ln)” value is -2.95 ± 0.27. Take ACAGAGCAAUAUUACGCUAU: the “self-splicing fitness (ln)” value by setting is: (30 °C) -3.38 ± 0.27; (37 °C) -1.12 ± 0.19. The corresponding values for AAGCAGCAAUAUUACGUUCA are -0.676 ± 0.056 and 0.0201 ± 0.064. The corresponding values for GCGAAGCAAUAUUACGAUAU are -2.52 ± 0.13 and -1.22 ± 0.12.

In the case of ACUUAGCAAUAUUACGGCCG, the “self-splicing fitness (ln)” value by setting is: (30 °C) -0.516 ± 0.071; (37 °C) -0.251 ± 0.11. Consider AAAGAGCAAUAUUACGUACG, for which the “self-splicing fitness (ln)” value is -3.6 ± 0.44 (30 °C) and -1.9 ± 0.41 (37 °C).

With CAAAAGCAAUAUUACGGUCU, the “self-splicing fitness (ln)” value by setting is: (30 °C) -3.38 ± 0.13; (37 °C) -1.1 ± 0.086. As for UGAGAGCAAUAUUACGGUCG, the “self-splicing fitness (ln)” value is -1.56 ± 0.083 (30 °C) and -0.464 ± 0.11 (37 °C).

Turning to GCCGAGCAAUAUUACGGGGC, the “self-splicing fitness (ln)” value by setting is: (30 °C) -4.27 ± 0.39; (37 °C) -2.28 ± 0.27. With CUAGAGCAAUAUUACGUGAU, the “self-splicing fitness (ln)” value is -1.85 ± 0.09 (30 °C) and -0.696 ± 0.1 (37 °C). On to UGUGAGCAAUAUUACGUACU, for which the “self-splicing fitness (ln)” value by setting is: (30 °C) -1.72 ± 0.17; (37 °C) 0.399 ± 0.15. For AGUAAGCAAUAUUACGACUU, in that order: -0.394 ± 0.068 and -0.58 ± 0.097. For the sequence CAAGAGCAAUAUUACGCUCC, the “self-splicing fitness (ln)” value (30 °C) is -2.23 ± 0.44.

UAAGAGCAAUAUUACGUGUA: the “self-splicing fitness (ln)” value was -2.36 ± 0.36 (30 °C) and -2.21 ± 0.27 (37 °C). AACUAGCAAUAUUACGCAGU: the “self-splicing fitness (ln)” value is -4.36 ± 0.41 (30 °C) and -1.96 ± 0.21 (37 °C). As to CGUCAGCAAUAUUACGUAUA, the “self-splicing fitness (ln)” value (37 °C) is -0.724 ± 0.16. Take UUCAAGCAAUAUUACGCACU: the “self-splicing fitness (ln)” value reads like this: (30 °C) 0.0955 ± 0.12; (37 °C) -0.66 ± 0.14. In the case of UGAGAGCAAUAUUACGGUGU, the “self-splicing fitness (ln)” value is, setting by setting: (30 °C) -2.98 ± 0.24; (37 °C) -2.36 ± 0.29. The corresponding values for AAAUAGCAAUAUUACGAGUU are -1.22 ± 0.11 and -0.896 ± 0.11. On to AAUCAGCAAUAUUACGAUAU, for which the “self-splicing fitness (ln)” value stood at 0.477 ± 0.082 (30 °C) and 0.538 ± 0.1 (37 °C). As to GUCAAGCAAUAUUACGUUUC, the “self-splicing fitness (ln)” value is -2.79 ± 0.13 (30 °C) and -2.39 ± 0.16 (37 °C). Turning to GGAUAGCAAUAUUACGCACU, the “self-splicing fitness (ln)” value by setting is: (30 °C) -2.36 ± 0.15; (37 °C) -1.05 ± 0.15.
